{"source": "patent US5750106", "target": "gH glycoprotein of CMV (82,000 dalton component) (human cytomegalovirus (CMV), strain not stated)", "data": [{"binder": "human monoclonal antibody SDZ MSL 109 (antibody, V domains shown) VH: EEQVLESGGGLVKPGGSLRLSCAASGFTFSPYSVFWVRQAPGKGLEWVSSINSDSTYKYYADSVKGRFTISRDNAENSIFLQMNSLRAEDTAVYYCARDRSYYAFSSGSLSDYYYGLDVWGQG VL: DIVMTQSPLSLSVTPGEPASISCRSSQSLLHTNGYNYLDWYVQKPGQSPQLLIYLASNRASGVPDRFSGSGSGTDFTLKISRVETEDVGVYYCMQALQIPRTFGQGTKVEIKR", "values": [{"measurement": "neutralizing concentration (micro-neutralization assay)", "result": 100, "unit": "ng/mL"}]}]}
